Data from patent publication US20230078173A1.

Molecular target: recombinant human PD-L1-mFc fusion protein (human) (UniProt Q9NZQ7)
Assay: ELISA, human PD-L1-mFc immobilised (1 µg/mL), anti-human kappa-HRP detection

recombinant human PD-L1-mFc fusion protein (human), sequence (Q9NZQ7 19-238): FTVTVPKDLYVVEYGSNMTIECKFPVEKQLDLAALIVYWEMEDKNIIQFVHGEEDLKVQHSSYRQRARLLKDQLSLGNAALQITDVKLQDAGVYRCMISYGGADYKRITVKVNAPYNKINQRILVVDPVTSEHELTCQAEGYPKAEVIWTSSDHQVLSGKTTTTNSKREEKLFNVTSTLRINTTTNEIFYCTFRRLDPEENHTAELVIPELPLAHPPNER

Which EC50 does the source give for Avelumab/TGFβR (antibody) here?
The EC50 was 107 pM.
